# In paper PMC12394075, “Domain coupling in activation of a family C GPCR” (Nature Chemical Biology, 2024):
# B1: isolated mGluR2 LBD (residues 22–502 with a Cys234Ser mutation) (domain or fragment, UniProt P31421 22-502, looked up)
# chain: AKKVLTLEGDLVLGGLFPVHQKGGPAEECGPVNEHRGIQRLEAMLFALDRINRDPHLLPGVRLGAHILDSCSKDTHALEQALDFVRASLSRGADGSRHICPDGSYATHSDAPTAVTGVIGGSYSDVSIQVANLLRLFQIPQISYASTSAKLSDKSRYDYFARTVPPDFFQAKAMAEILRFFNWTYVSTVASEGDYGETGIEAFELEARARNISVATSEKVGRAMSRAAFEGVVRALLQKPSARVAVLFTRSEDARELLAATQRLNASFTWVASDGWGALESVVAGSERAAEGAITIELASYPISDFASYFQSLDPWNNSRNPWFREFWEERFHCSFRQRDCAAHSLRAVPFEQESKIMFVVNAVYAMAHALHNMHRALCPNTTHLCDAMRPVNGRRLYKDFVLNVKFDAPFRPADTDDEVRFDRFGDGIGRYNIFTYLRAGSGRYRYQKVGYWAEGLTLDTSFIPWASPSAGPLPASRCSE
# notes: Rat is surmised because the same peptides are compared with the full-length rat construct; the simulations used human mGluR2; also called LBD-alone construct; LBD-only construct; source: Expi293 GNTI- cells, secreted into media, purified (anti-FLAG M2 resin, SEC)
# Biological target: the molecule itself
# Assay: SEC; Superdex 200 10/300 increase; 100 mM NaCl, 20 mM HEPES, pH 7.5
protein,measurement,value
B1,stoichiometry N,2
